{"source": "patent US11219695", "key": {"[1]": {"tested_on": "ZFN SBS 47898 (also printed as SB 47931 in the transduction method) (synthetic construct)", "test": "cell_activity", "conditions": "ZFN pair with P1; HepG2/C3A, 300K/600K vg/cell, donor A; partner named 47898 or 47931 in text; half-site not stated"}, "[2]": {"tested_on": "ZFN SBS 47171 (left/right albumin ZFN, FokI fusion) (synthetic construct)", "test": "cell_activity", "conditions": "ZFN pair with P2; HepG2/C3A, 300K/600K vg/cell, donor A; 39.81% with donor B; half-site not stated"}}, "data": [{"sequence": "GCACTAAGGAAAGTGCAAAGTAACTTAGAGTGACTGAAACTTCACAGAATAGGGTTGAAGATTGAATTCATAACTATCCCAAAGACCTATCCATTGCACTATGCTTTATTTAAAAACCACAAAACCTGTGCTGTTGATCTCATAAATAGAACTTGTATTTATATTTATTTTCATTTTAGTCTGTCTTCTTGGTTGCTGTTGATAGACACTAAAAGAGTATTA (double strand)", "values": [{"measurement": "activity", "setting": "[1]", "value": 43.5, "unit": "% indels"}, {"measurement": "activity", "setting": "[2]", "value": 43.5, "unit": "% indels"}]}]}
